For orientation: IC50 means the concentration that inhibits the measured activity by half. Low values mean higher potency, high ones lower potency.

Among the data in patent US20080299072A1 (LABORATOIRES SERONO, published 2008) are IC50 values, retold here.

Assay [1] addresses T1, CCR1 (UniProt P32246 1-355, limits assumed).
T1 construct: whole, on cells; Membrane preparation of CHO transfectants; also called CCR1-expressing CHO membranes
T1 sequence (looked up): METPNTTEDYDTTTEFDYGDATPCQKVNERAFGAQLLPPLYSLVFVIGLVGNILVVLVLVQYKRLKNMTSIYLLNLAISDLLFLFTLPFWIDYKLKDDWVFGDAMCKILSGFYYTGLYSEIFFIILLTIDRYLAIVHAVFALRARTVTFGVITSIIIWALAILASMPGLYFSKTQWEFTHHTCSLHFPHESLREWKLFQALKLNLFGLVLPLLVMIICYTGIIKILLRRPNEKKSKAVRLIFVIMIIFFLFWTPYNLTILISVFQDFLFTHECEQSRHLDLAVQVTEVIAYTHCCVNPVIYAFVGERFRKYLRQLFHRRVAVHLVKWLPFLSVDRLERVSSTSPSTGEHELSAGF
Kind of assay: competition SPA, displacement of 125I-MIP-1α from CCR1 CHO membranes. Here is the method:
(§1) The assay was carried out on membranes isolated from CHO transfectants expressing CCR1 and CCR5 from Invitrogen® using a scintillation proximity assay (Alouani, 2000). The unlabelled chemokines were prepared in triplicate by serial dilution in the range of 10⁻⁶ to 10⁻¹² M in 50 mM HEPES pH 7.5, containing 1 mM CaCl₂, 5 mM MgCl₂ and 0.5% bovine serum albumin (binding buffer). Wheatgerm scintillation proximity assay beads (Amersham®) were solubilized at 50 mg/ml in PBS, diluted to 10 mg/ml in binding buffer and put at 250 μg/well. Membranes were diluted to 80 μg/ml in binding buffer and put at 2 μg/well in the assay plates. ¹²⁵I-MIP-1α (Amersham®) was put at 0.1 nM/well and finally unlabelled chemokine was added into the plate. The plates were incubated for 3 h at room temperature with agitation and radioactivity was read with a Wallac counter.
(In general: In a radioligand displacement assay an active substance lowers the binding of a labelled ligand.)

In assay [2] the target is T1, CCR1. Kind of assay: competition SPA, displacement of 125I-MIP-1α from CCR1 CHO membranes (FIG. 1). The method, then:
FIG. 1: Equilibrium competition binding to CCR1. The binding assay was performed by monitoring the displacement of [¹²⁵I]-MIP-1α from CCR1-expressing CHO membranes. A) PEGylated Ser/Cys variants (S1C, S4C). Added as competitors were: RANTES (□), Met-RANTES (X), S1C-5 kDaPEG-RANTES (▪), S4C-5 kDaPEG-RANTES. B) N-terminal PEGylated wt RANTES variants. Added as competitors were: RANTES (□), Met-RANTES (X), PEG-2 kDa-RANTES (▴), PEG-5 kDa-RANTES (▾).
as §1

Assay [3] concerns the target T2, CCR5 (UniProt P51681 1-352, limits assumed).
T2 construct: whole, on cells; L1.2/CCR5 cells for chemotaxis; also called CCR5-expressing CHO membranes; L1.2/CCR5 transfectants
Kind of assay: competition SPA, displacement of 125I-MIP-1α from CCR5 CHO membranes. The method, then: as §1

For assay [4], the target named is T2, CCR5. Kind of assay: competition SPA, displacement of 125I-MIP-1α from CCR5 CHO membranes (FIG. 2). The method, then: FIG. 2: Equilibrium competition binding to CCR5. The binding assay was performed by monitoring the displacement of [¹²⁵I]-MIP-1α from CCR5-expressing CHO membranes. A) PEGylated Ser/Cys variants. Added as competitors were: RANTES (□), Met-RANTES (x), S1C-5 kDaPEG-RANTES (▪), S4C-5 kDaPEG-RANTES, S5C-5 kDaPEG-RANTES (□). B) N-terminal PEGylated wt RANTES variants. Added as competitors were RANTES (□), Met-RANTES (x), PEG-2 kDa-RANTES (▴), PEG-5 kDa-RANTES (▾).
as §1

T2 sequence (P51681 whole entry): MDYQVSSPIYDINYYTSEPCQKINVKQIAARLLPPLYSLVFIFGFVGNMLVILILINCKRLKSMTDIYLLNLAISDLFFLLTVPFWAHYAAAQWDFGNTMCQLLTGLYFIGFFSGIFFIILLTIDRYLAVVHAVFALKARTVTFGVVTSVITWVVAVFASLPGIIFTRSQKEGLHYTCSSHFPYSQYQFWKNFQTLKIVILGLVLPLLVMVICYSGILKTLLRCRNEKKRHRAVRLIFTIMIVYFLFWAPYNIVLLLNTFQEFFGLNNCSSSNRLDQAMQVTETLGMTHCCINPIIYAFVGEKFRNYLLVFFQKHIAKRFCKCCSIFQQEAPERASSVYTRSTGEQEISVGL

B1: Mature wildtype (wt) human RANTES (ligand)
chain: SPYSSDTTPCCFAYIARPLPRAHIKEYFYTSGKCSNPAVVFVTRKNRQVCANPEKKWVREYINSLEMS
notes: The mature form was used; also called WT RANTES; CCL5
Take B1: the IC50 with CCR1 [1] was determined as 23.3 nM; with CCR1 [2], 69 nM.

B2: S1C-5 kDaPEG-RANTES (ligand)
chain: C(mPEG‑MAL 5 kDa)PYSSDTTPCCFAYIARPLPRAHIKEYFYTSGKCSNPAVVFVTRKNRQVCANPEKKWVREYINSLEMS
notes: Expressed without a leader; also called S1C-5 kDa-RANTES
On to B2, for which the 50% inhibitory concentration (IC50) in the assay with CCR1 [1] was 167 nM; in the assay with CCR1 [2] it was 272 nM; in the assay with CCR5 [3], 41 nM; with CCR5 [4], 82.5 nM.

B3: S4C-5 kDaPEG-RANTES (ligand)
chain: SPYC(mPEG‑MAL 5 kDa)SDTTPCCFAYIARPLPRAHIKEYFYTSGKCSNPAVVFVTRKNRQVCANPEKKWVREYINSLEMS
notes: This is probably a printing error; also called S4C-5 kDa-RANTES
As to B3, the IC50 in the assay with CCR1 [1] amounted to 84 nM; with CCR1 [2] it was 83 nM; in the assay with CCR5 [3], 40 nM; with CCR5 [4], 45.4 nM.

B4: S5C-5 kDaPEG-RANTES (ligand)
chain: SPYSC(mPEG‑MAL 5 kDa)DTTPCCFAYIARPLPRAHIKEYFYTSGKCSNPAVVFVTRKNRQVCANPEKKWVREYINSLEMS
notes: also called S5C-5 kDa-RANTES
The molecule B4 had an IC50 with CCR5 [3] of 902 nM.

B5: Met-RANTES (ligand)
chain: MSPYSSDTTPCCFAYIARPLPRAHIKEYFYTSGKCSNPAVVFVTRKNRQVCANPEKKWVREYINSLEMS
notes: The build (Met + mature RANTES) comes from the background description and the name
Regarding B5, the IC50 in the assay with CCR1 [1] was 73 nM; with CCR1 [2], 72 nM; with CCR5 [3], 15.2 nM; in the assay with CCR5 [4] it was 15.5 nM.

B6: PEG-5 kDa-RANTES (ligand)
chain: {mPEG‑ButyrALD 5 kDa}-SPYSSDTTPCCFAYIARPLPRAHIKEYFYTSGKCSNPAVVFVTRKNRQVCANPEKKWVREYINSLEMS
notes: also called N-terminal PEGylated wt RANTES (5 kDa)
In the case of B6, the figures for the IC50 with CCR1 [1] and with CCR1 [2] were 50 nM and 47 nM, respectively.

B7: PEG-2 kDa-RANTES (ligand)
chain: {mPEG‑ButyrALD 2 kDa}-SPYSSDTTPCCFAYIARPLPRAHIKEYFYTSGKCSNPAVVFVTRKNRQVCANPEKKWVREYINSLEMS
notes: also called N-terminal PEGylated wt RANTES (2 kDa)
Take B7: the results for the IC50 in the assay with CCR1 [1] and with CCR1 [2] were 43 nM and 41 nM, respectively.
